Source: patent US20160120951A1 (ZEALAND PHARMA A S, published 2016)
Like-named read-outs stand apart in the source and are kept apart here. Numbered stars: 1 amine (or outer) side, 2 acyl side, 3 side chain; on linkers, the order of the positions; unused ones are H or OH. Square brackets hold non-standard residues; d marks the D form. Side chains are listed from the residue outwards. Ends that are not written are not given here. * marks the point of attachment. isoGlu = used interchangeably with γ-Glu; γGlu = O=C(O)[C@H](CCC(=O)[*:2])N[*:1]; Palmitoyl = CCCCCCCCCCCCCCCC(=O)*; Aib = CC(C)(N)C(=O)O

B1: Compound 6 (peptide)
peptide: H-HSQGTFTSDYSKYLDSKAAHDFVEWLLK([γGlu-Palmitoyl])A-NH2
SMILES: CCCCCCCCCCCCCCCC(=O)N[C@@H](CCC(=O)NCCCC[C@H](NC(=O)[C@H](CC(C)C)NC(=O)[C@H](CC(C)C)NC(=O)[C@H](Cc1c[nH]c2ccccc12)NC(=O)[C@H](CCC(=O)O)NC(=O)[C@@H](NC(=O)[C@H](Cc1ccccc1)NC(=O)[C@H](CC(=O)O)NC(=O)[C@H](Cc1c[nH]cn1)NC(=O)[C@H](C)NC(=O)[C@H](C)NC(=O)[C@H](CCCCN)NC(=O)[C@H](CO)NC(=O)[C@H](CC(=O)O)NC(=O)[C@H](CC(C)C)NC(=O)[C@H](Cc1ccc(O)cc1)NC(=O)[C@H](CCCCN)NC(=O)[C@H](CO)NC(=O)[C@H](Cc1ccc(O)cc1)NC(=O)[C@H](CC(=O)O)NC(=O)[C@H](CO)NC(=O)[C@@H](NC(=O)[C@H](Cc1ccccc1)NC(=O)[C@@H](NC(=O)CNC(=O)[C@H](CCC(N)=O)NC(=O)[C@H](CO)NC(=O)[C@@H](N)Cc1c[nH]cn1)[C@@H](C)O)[C@@H](C)O)C(C)C)C(=O)N[C@@H](C)C(N)=O)C(=O)O
B2: Compound 41 (peptide)
peptide: H[Aib]QGTFTSDYSKYLDSK([isoGlu-Palmitoyl])AAHEFVEWLLSA-NH2
B3: Compound 42 (peptide)
peptide: H-H[Aib]QGTFTSDYSKYLDSK([isoGlu-Palmitoyl])AAEDFVEWLLSA-NH2
B4: Compound 43 (peptide)
peptide: H-H[Aib]QGTFTSDYSKYLDSK([isoGlu-Palmitoyl])AAHDFVEWLLEA-NH2
B5: Compound 7 (peptide)
peptide: HXQGTFTSDYSKYLDSKAAHDFVEWLLSA
modifications: Aib at position 2; K(Hexadecanoyl-γ-Glu) at position 17; C-terminal amide (NH2)
B6: Compound 40 (peptide)
peptide: H-H[Aib]QGTFTSDYSKYLDEK([isoGlu-Palmitoyl])AAHDFVEWLLSA-NH2
B7: Compound 5 (peptide)
peptide: H-HSQGTFTSDYSKYLDSKAAHDFVEWLK([γGlu-Palmitoyl])RA-NH2
SMILES: CCCCCCCCCCCCCCCC(=O)N[C@@H](CCC(=O)NCCCC[C@H](NC(=O)[C@H](CC(C)C)NC(=O)[C@H](Cc1c[nH]c2ccccc12)NC(=O)[C@H](CCC(=O)O)NC(=O)[C@@H](NC(=O)[C@H](Cc1ccccc1)NC(=O)[C@H](CC(=O)O)NC(=O)[C@H](Cc1c[nH]cn1)NC(=O)[C@H](C)NC(=O)[C@H](C)NC(=O)[C@H](CCCCN)NC(=O)[C@H](CO)NC(=O)[C@H](CC(=O)O)NC(=O)[C@H](CC(C)C)NC(=O)[C@H](Cc1ccc(O)cc1)NC(=O)[C@H](CCCCN)NC(=O)[C@H](CO)NC(=O)[C@H](Cc1ccc(O)cc1)NC(=O)[C@H](CC(=O)O)NC(=O)[C@H](CO)NC(=O)[C@@H](NC(=O)[C@H](Cc1ccccc1)NC(=O)[C@@H](NC(=O)CNC(=O)[C@H](CCC(N)=O)NC(=O)[C@H](CO)NC(=O)[C@@H](N)Cc1c[nH]cn1)[C@@H](C)O)[C@@H](C)O)C(C)C)C(=O)N[C@@H](CCCNC(=N)N)C(=O)N[C@@H](C)C(N)=O)C(=O)O

Legend:
Assay in all cases: cell-based or functional assay
[1] = target: T1, human glucagon receptor (Glucagon-R) (human, UniProt P47871 26-477)
[2] = target: T2, human glucagon-like peptide 1 receptor (GLP-1R) (human, UniProt P43220 24-463)
[3] = target: T1, human glucagon receptor (Glucagon-R); remark: listed apart in the source
[4] = target: T2, human glucagon-like peptide 1 receptor …; remark: listed apart in the source

T2 sequence (P43220 24-463): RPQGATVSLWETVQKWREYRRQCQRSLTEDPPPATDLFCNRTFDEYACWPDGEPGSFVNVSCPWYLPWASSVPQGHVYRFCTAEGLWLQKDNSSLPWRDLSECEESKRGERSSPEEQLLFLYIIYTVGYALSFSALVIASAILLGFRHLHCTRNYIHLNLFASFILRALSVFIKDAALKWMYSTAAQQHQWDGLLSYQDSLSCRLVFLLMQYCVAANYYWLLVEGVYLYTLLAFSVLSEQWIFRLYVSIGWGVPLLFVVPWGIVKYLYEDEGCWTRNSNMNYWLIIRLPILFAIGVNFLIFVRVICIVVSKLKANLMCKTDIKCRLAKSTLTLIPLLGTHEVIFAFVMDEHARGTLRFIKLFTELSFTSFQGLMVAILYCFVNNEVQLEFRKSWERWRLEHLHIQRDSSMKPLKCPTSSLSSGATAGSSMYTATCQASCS

Row | Binder | EC50 (nM) GluR, cAMP formation [1] [nM] | EC50 (nM) GLP-1R, cAMP formation [2] [nM] | EC50 (nM) GluR, cAMP formation [3] [nM] | EC50 (nM) GLP-1R, cAMP formation [4] [nM]
1 | B1 | 0.1 | 0.09 |  | 
2 | B2 |  |  | 0.08 | 0.13
3 | B3 |  |  | 0.27 | 0.03
4 | B4 |  |  | 0.12 | 0.082
5 | B5 | 0.16 | 0.11 |  | 
6 | B6 |  |  | 0.18 | 0.2
7 | B7 | 0.22 | 0.57 |  | 
